# Measurements reported in the RNAGym collection of RNA variant scans (doi:10.1073/pnas.2313332121).
# B1: TPR t1 (parent)
# chain: GACCAAUCUGCCCUCAGAGCUCGAGAACAUCUUCGGAUGCAGAGGAGGCAGGCUUCGGUGGCGCGAUAGCGCCAACGUCCUCAACCUCCAAUGCAUCCCACCACAUGAUGAUGCCUGAAGAGCCUUGGUUUUUUG
# Variants of: B1
# Test: polymerase ribozyme fitness, log enrichment relative to wild type (log ratio); higher = more active; in vitro selection for triplet polymerase activity
# Summary of the method: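 To select mutant libraries of each subunit of a heterodimeric triplet polymerase ribozyme, built by PCR and transcribed, each was annealed with a biotinylated primer, partner subunit and triplets, then incubated frozen at −7 °C. Extended constructs were gel-excised, captured on streptavidin beads and amplified by RT-PCR, in one round carried out in triplicate. Illumina sequencing of input and output libraries kept genotypes with ≥10 input reads and ≥1 read per output. Fitness is the base-2 logarithm of genotype enrichment relative to wild-type enrichment, from inverse-variance-weighted replicate averages.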
row,Variant,polymerase ribozyme fitness (log ratio)
1,GACCAAUCUGCCCUCAGAGCUCGAGAACAUCUUCGGAUGCAGAGGAGGCAGGCUUCGGUGGCGCGAUACCGCCAACGUCCUCAACCUCCAAUGCAUCCCACCACAUGAUGAUGCCUGAAGAGCCUUGCUUUUUUG [G69C G128C],-3.85
2,GACGAAUCUGCCCUCAGAGCUCGAGAACAUCUUCGGAUGCAGAGGAGGCAGGCUUCGGUGGCGCGAUAGCGCCAACGUCUUCAACCUCCAAUGCAUCCCACCACAUGAUGAUGCCUGAAGAGCCUUGGUUUUUUG [C4G C80U],-1.83
3,GACCGAUCUGCCCUCAGAGCUCGAGAACAUCUUCGGAUGCAGAGGAGGCAGGCUUCGGUGGCGCGAUAGCGCCAACGUCCUCAACCUCCAAUGCAUCCCACCACAUGAUGAUGCCUGAAGAGCAUUGGUUUUUUG [A5G C124A],1.03
4,GCCCAAUCUGCCCUCAGAGCUCGAGAACAUCUUCGGAUGCAGAGGAGGCAGGCUUCGGUGGCGCGAUAGCGCCAACGUCCUCAACCUCCAAUGCAUCCCACCACAUGAUGAUGCCUUAAGAGCCUUGGAUUUUUG [A2C G117U U129A],-4.64
5,GACCAAUCUGCCCUCAGAGCUCGAGAACAUCUUCGGAUGCAGAGGAGGCAGGCUUCGGUGGCGCGAUAGCGCCAACGUCCUCAACCUCCAAUGCAUCCUACGACAUGAUGAUGCCUGAAGAGCCUUGGUUUUUUG [C99U C102G],-6.32
6,GACCAAUCUGCCCUCAGAGCUCGAGAACAUCUUCGGAUGCAGAGGAGGCAGGCUUCGGUAGCGCGAUAGCGCCAACGUCCUCAACCUCCAAUGCAUCCCACCACAUGAUGAUGCCUGAAGAACCUUGGUUUCUUG [G60A G122A U132C],-0.379
7,GAUCAAUCUGCCCUCAGUGCUCGAGAACAUCUUCGGAUGCAGAGGAGGCAGGCUUCGGUGGCGCGAUAGCGCCAACGUCCUAAACCUCCAAUGCAUCCCACCACAUGAUGAUGCCUGAACAGCCUUGGUUUUUUG [C3U A18U C82A G120C],-1.8
8,GACCAAUCUGCCCUCAGAGCUCGAGAACAUCUUCGGAUGCAGAGGAGGGAGGCUUCGGUGGCGCGAUAGCGCCAACGUCCUCAACCUCCAAUGCAUCCCACCACAUAAUGAUGCCUGAAGAGCCUUGGUUUUUUG [C49G G107A],-6.49
9,GACCAAUCUGCCCUCAGAGCUCGAGAACAUCUUCGGAUGCAGAGGAGGAAGGCUUCGGUGACGCGAUAGCGCCAACGUCCUCAACCUCCAAUGCAUCCCACCACAUGAUGAUGCCUGAAGAGCCUUCGUUUUUUC [C49A G61A G127C G135C],-0.458
10,GACCAAUCUGCCCUCAGCGCUCGAGAACAUCUUCGGAUGCAGAGGAGGCAGGCUUCGGUGGCGCGAUAGCGCCAACGUCCUCAACCUCCAAUGCAUCCCACCACAUGAUAAUGCCUGAAGAGCCUUGGUUUUUUG [A18C G110A],-3.98
11,GACCAAUCUGCCCUCAGAGCUCGAGAAAAUCUUCGGAUGCAGAGGAGGCAGGCUUCGGUGGCGCGCUAGCGCCAACGUCCUCAACCUCCAAUGCAUCCCACCACAUGAUGUUGCGUGAAGAGCCUUGGUUUUUUG [C28A A66C A111U C115G],-6.53
12,GACCAAUCUGCCCUCAGAGCUCGAGAACAUCUUCGGAUGCAGAGGAGGCAGGCUUCGGUGGAGCGAUAGCGCCAACGUCCUCAACCUCCAAUGCAUCCCACCACAUGAUGAUGCCUGAAGAGCCUUCGUUUUUUG [C62A G127C],-1.29
13,GACCAAUCUGCCCUCAGAGCUCGAGAACAUCUUCGGAUGCAGAGGAGGCAGGGUUCGGUGGCGCGAUAGCGCCAACGUCCUCAACCUCCAAUGCAUCCCACCACAUGAUGAUGCUUGAAGAGCCUUGGUUUUUUG [C53G C115U],-1.56
14,GACCAAUCUGCCCUCAGAGCUCGAGAACAUCUUCGGAUGCAGAGGAGGCAGGCUUCGGUGGCGCGAUAGCGCCAGCGUCAUCAACCUCCAAUGCAUCCCACCACAUGAUGAUGCCUGAAGAGCCUUGUUUUUCUC [A75G C80A G128U U133C G135C],-4.6
15,GACCAAUCUGCCCUCAGAGCUCGAGAACAUCUUCGGAUGCAGAGGAGGCAGGCUUCGGUGGCGCGAUAGCGUCAACGUCCUCAACCUCCAAUGAAUCCCACCACAUGAUGAUGCCUGAAGAGCCUUGGUUUUUUG [C72U C94A],-1.26
16,GACCAAUCUGCCCUCAGAGCUCGAGAACAUCUUCGGAUGUAGAGGAGGCAGGCUUCGGUGGCGCGAUAGCACCAACGUCCCCAACCUCCAAUGCUUCCCACCACAUGAUGAUGCCUGAAGAGCCUUGGUUUUUUG [C40U G71A U81C A95U],-3
17,GACCAAUCUGCACUCAGAGCUCGAGAACAUCUUCGGAUGCAGAGGAGGCAGGCUUAGGUGGCGCGAUAGUGCCAACGUCCUCAACCUCCAAUGCAUCCCACAAUAUGAUGAUGCCUGAAGAGCCUUGGUUUUUUG [C12A C56A C70U C102A C104U],-2.58
18,GACCAAUCUGCCCUCAGAGCUCGAGAACAUCUUCGGAUGCAGACGAGGCAGGCUUCGGUGGCGCGAUAGCGCCAACGUCCUCAACCGCCAAUGCAUCCCACCACAUGAUGAUGCCUGAAGAGCCUUGGUUUUUUG [G44C U87G],-0.724
19,GUCCAACCUGCCCUCAGAGCUCGAGAACAUCUUCGGAUGCAGACGAGGCAGCCUUAGGUGGCGCGAUAGCGCCAACGUCCUCAACCUCCAAUGCAUCCCACCACAUGAUGAUGCCUGAAGAGCCUUGGUUUUUUG [A2U U7C G44C G52C C56A],-4.24
20,GACCAAUCUGCCCUCAGAGCUCGAGAACAUCUUCGGAUGCAGAGGAGGCAGGCAUCGGUGGCGCGAUAGCGCCAACGUCCACAACCUCCAAUGCAUCCCACCACAUGAUGAUGCCUGAAGAGCCUUGGUUUUUUG [U54A U81A],-0.628
21,GACCAAUCUGCCCUCAGAGCUCGAGAACAUCUUCGGAUGCAGAGGAGGCAGGCUUCUGUGGCGCGAUAGGGCCAACGUCCUCAACCUCCAAUGCAUCCCACCACAUGAUGAUGCCUGAAGAGCGUUGGUUUUUUG [G57U C70G C124G],-2.06
